# In patent US20250282880A1 (NUMAB THERAPEUTICS, published 2025):
# Key:
# [1] = molecular target: T1, recombinant cynomolgus monkey IL-4R (ECD with His-tag, Acro Biosystems) (cynomolgus monkey, UniProt A0A2K5V556 26-232); test: SPR (Biacore T200), Morrison antibody captured via anti-human IgG-Fc, cynomolgus IL-4R ECD-His as analyte, 1:1 model
# T1 construct: analyte in the SPR of the Morrison-H antibodies; also called cynomolgus IL-4R
# Method: (§1) In this SPR experiment, Morrison molecules were captured via an anti-human IgG-Fc antibody (Human Antibody Capture Kit; Biacore, Cytiva) covalently immobilized to a carboxylmethylated dextran surface (CM5 sensorchip; Biacore, Cytiva) and a titration series of human IL-4R ECD was injected as analyte. After each analyte injection cycle, the sensor chip was regenerated (MgCl₂), and new Morrison antibody was subsequently re-captured. […] The apparent dissociation (kd) and association (kₐ) rate constants and the apparent dissociation equilibrium constant (KD) were calculated with the Biacore analysis software (Biacore Evaluation software Version 3.2, Cytiva) using one-to-one Langmuir binding model and quality of the fits was monitored based on Chi2 and U-value, which are measures for the quality of the curve fitting. The binding level was calculated as the maximum stability binding achieved normalized to the theoretical Rmax. Cross-reactivity to cynomolgus monkey IL-4R was measured using the same setup as for the analysis of human IL-4R kinetics, with the difference that recombinant cynomolgus monkey IL-4R (ECD with His-tag, Acro Biosystems) protein was used as analyte instead of human IL-4R.
# [2] = molecular target: T2, IL-4R on HEK-Blue cells (human, UniProt P24394 26-825); test: cell-based or functional assay
# [3] = molecular target: T2, IL-4R on HEK-Blue cells; test: cell-based or functional assay; remark: listed apart in the source
# [4] = molecular target: T3, recombinant human IL-4R protein (ECD with His Tag, Sino Biological) (human, UniProt P24394 26-232); test: SPR (Biacore T200), Morrison antibody captured via anti-human IgG-Fc, human IL-4R ECD-His as analyte 0.175 to 45 nM, 1:1 model
# T3 construct: extracellular domain; analyte in the SPR of the Morrison-H antibodies; also called human IL-4R ECD; not shown: His tag
# Method: as §1
# T1 sequence (A0A2K5V556 entry or part of it limits assumed): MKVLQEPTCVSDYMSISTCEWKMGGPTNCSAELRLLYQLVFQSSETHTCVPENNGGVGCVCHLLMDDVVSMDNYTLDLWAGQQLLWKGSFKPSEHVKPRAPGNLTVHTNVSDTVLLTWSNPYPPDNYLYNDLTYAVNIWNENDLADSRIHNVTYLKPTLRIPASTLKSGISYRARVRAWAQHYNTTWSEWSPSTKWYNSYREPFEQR
Binder,Kd [1] [nM],koff [1] [s⁻¹],kon [1] [M⁻¹ s⁻¹],"Mean IC50, neutralization of human IL-4-induced signaling in the stat-6 reporter gene assay [2] [nM]","Mean rel. IC50 [IC50 dupilumab/IC50 sample], human IL-4-induced signaling [2] [ratio]","Retained IC50 with and without IL-31 excess (n = 1) [IC50, no IL-31/IC50, with IL-31] [2] [ratio]","Mean IC50, neutralization of human IL-13 induced signaling in the stat-6 reporter gene assay [3] [nM]","Mean rel. IC50 [IC50 dupilumab/IC50 sample], human IL-13 induced signaling [3] [ratio]",Kd [4] [nM],koff [4] [s⁻¹],kon [4] [M⁻¹ s⁻¹],"Mean IC50, neutralization of human IL-13 induced signaling in the stat-6 reporter gene assay (single analysis) [3] [nM]","Mean rel. IC50 [IC50 dupilumab/IC50 sample], human IL-13 induced signaling (single analysis) [3] [ratio]"
"PRO2198 (bispecific antibody, human IgG4 S228P, kappa, IgG4 (S228P) Morrison-H, IgG4-(scFv)2: Fab arms 44-34-C10-sc08 (anti-IL-4R), anti-IL-31 scFv 50-09-D07-sc04 fused to the C-terminus of the heavy chain; also called Morrison-H antibody PRO2198; anti-IL-4RxIL-31 bispecific antibody) light: DIQMTQSPSSLSARVGDRVTITCQASEDIESYLAWYQQKPGKAPKLLIYRASTLAYGVPSRFSGSGSGRDFTLTISSLQPEDFATYYCLGSSYSTGSNIFGQGTKVEIKRTVAAPSVFIFPPSDEQLKSGTASVVCLLNNFYPREAKVQWKVDNALQSGNSQESVTEQDSKDSTYSLSSTLTLSKADYEKHKVYACEVTHQGLSSPVTKSFNRGEC heavy: not shown",0.144,4.9e-05,370000,0.0239,0.42,0.71,0.0221,0.42,0.291,0.000101,352000,–,–
"PRO2199 (bispecific antibody, human IgG4 S228P, kappa, IgG4 (S228P) Morrison-H, IgG4-(scFv)2: Fab arms 44-34-C10-sc09 (anti-IL-4R), anti-IL-31 scFv 50-09-D07-sc04 fused to the C-terminus of the heavy chain; also called Morrison-H antibody PRO2199; anti-IL-4RxIL-31 bispecific antibody) light: DIQMTQSPSSLSASVGDRVTITCQASEDIESYLAWYQQKPGKAPKLLIYRASTLAYGVPSRFSGSGSGTDFTLTISSLQPEDFATYYCLGSSYSTGSNIFGQGTKVEIKRTVAAPSVFIFPPSDEQLKSGTASVVCLLNNFYPREAKVQWKVDNALQSGNSQESVTEQDSKDSTYSLSSTLTLSKADYEKHKVYACEVTHQGLSSPVTKSFNRGEC heavy: not shown",0.0351,3.44e-05,980000,0.0115,0.72,1.25,–,–,0.197,5.76e-05,293000,0.0113,0.69
